Target: KO_CRD4+linker (human OX40 aa 147 to 214 replaced with the mouse counterparts) (human; mouse)
Test: flow cytometry, transfected 293F cells, column KO_CRD4+linker

KO_CRD4+linker (human OX40 aa 147 to 214 replaced with the mouse counterparts) (human; mouse), sequence (chain, as listed by the source limits assumed, form in doubt): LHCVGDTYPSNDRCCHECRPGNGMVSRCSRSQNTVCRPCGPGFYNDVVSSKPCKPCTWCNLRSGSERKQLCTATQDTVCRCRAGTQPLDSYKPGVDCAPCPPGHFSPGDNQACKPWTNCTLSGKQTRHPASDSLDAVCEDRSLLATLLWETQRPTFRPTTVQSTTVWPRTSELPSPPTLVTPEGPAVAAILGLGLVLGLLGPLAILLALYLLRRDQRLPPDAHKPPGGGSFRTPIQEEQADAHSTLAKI

B1: 9B12 (antibody, mouse IgG1, V domains shown)
VH: EVQLQESGPSLVKPSQTLSLTCSVTGDSFTSGYWNWIRKFPGNRLEYMGYISYNGITYHNPSLKSRISITRDTSKNHYYLQLNSVTTEDTATYFCARYRYDYDGGHAMDYWGQGTLVTVSS
VL: DIQMTQTTSSLSASLGDRVTISCRASQDISNYLNWYQQKPDGTVKLLIYYTSKLHSGVPSRFSGSGSRTDYSLTITDLDQEDIATYFCQQGSALPWTFGQGTKVEIKR
  percent of cells in the Alexa Fluor 488 gate (number printed over the gate): 52.7
